Experimental data: IntAct's records for PubMed 21720390

B1: NAD-dependent protein deacetylase sirtuin-3, mitochondrial (Homo sapiens), Q9NTG7 (parent)
chain: MAFWGWRAAAALRLWGRVVERVEAGGGVGPFQACGCRLVLGGRDDVSAGLRGSHGARGEPLDPARPLQRPPRPEVPRAFRRQPRAAAPSFFFSSIKGGRRSISFSVGASSVVGSGGSSDKGKLSLQDVAELIRARACQRVVVMVGAGISTPSGIPDFRSPGSGLYSNLQQYDLPYPEAIFELPFFFHNPKPFFTLAKELYPGNYKPNVTHYFLRLLHDKGLLLRLYTQNIDGLERVSGIPASKLVEAHGTFASATCTVCQRPFPGEDIRADVMADRVPRCPVCTGVVKPDIVFFGEPLPQRFLLHVVDFPMADLLLILGTSLEVEPFASLTEAVRSSVPRLLINRDLVGPLAWHPRSRDVAQLGDVVHGVESLVELLGWTEEMRDLVQRETGKLDGPDK

Variants of: B1
Conditions: with aldh2_human ALDH2, P05091
Sequence of aldh2_human ALDH2, P05091 (P05091 whole entry): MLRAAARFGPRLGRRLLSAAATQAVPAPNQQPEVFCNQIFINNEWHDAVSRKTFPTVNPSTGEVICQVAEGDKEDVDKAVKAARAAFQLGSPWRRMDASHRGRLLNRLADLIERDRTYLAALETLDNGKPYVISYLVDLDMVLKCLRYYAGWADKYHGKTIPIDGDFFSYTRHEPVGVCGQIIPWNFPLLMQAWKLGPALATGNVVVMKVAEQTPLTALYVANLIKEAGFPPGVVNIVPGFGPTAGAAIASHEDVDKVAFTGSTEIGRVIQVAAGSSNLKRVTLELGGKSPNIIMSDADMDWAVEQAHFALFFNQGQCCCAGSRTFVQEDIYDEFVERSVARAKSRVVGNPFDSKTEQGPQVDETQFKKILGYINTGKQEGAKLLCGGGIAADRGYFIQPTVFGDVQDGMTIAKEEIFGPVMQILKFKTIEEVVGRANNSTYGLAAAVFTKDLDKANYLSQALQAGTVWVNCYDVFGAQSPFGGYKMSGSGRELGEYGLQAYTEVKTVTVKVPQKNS

For H248Y, which “effect of a mutation on the interaction” value is on record?
The value was “decreasing interaction”.
